# Measured values: US12662531B2, “CLDN18.2 antibody and use thereof” (FUTUREGEN BIOPHARMACEUTICAL (BEIJING) CO., LTD., priority 2019, dated 2026)
# B1: 18.2-A1: recombinant monoclonal CLDN18.2 antibody, VH SEQ ID NO: 1, VL SEQ ID NO: 6 (antibody, V domains shown)
# VH: EVQLVQSGAEVKKPGASVKVSCKASGYTFTSSWLIWVRQAPGQGLEWIGTIVPSDSYTNYNQKFKDRATLTVDKSTSTAYMELSSLRSEDTAVYYCTRFRTGNSFDYWGQGTLVTVSS
# VL: DIVMTQSPDSLSVGLGERATINCKSSQSVLNSGNQKNYLTWYQQKPGQPPKLLIYWAVARQSGVPDRFSGSGSGTDFTLTISSLQAEDVAVYYCQNSIAYPFTFGQGTKVEIK
# modifications: 18.2-A1 VH; 18.2-A1 VL
# How the values were obtained:
# [1] = test system: untransfected Jurkat cells; assay: Flow cytometry binding to untransfected Jurkat cells; conditions: results not shown
# [2] = target: T1, CLDN18.2 (CT26-CLDN18.2 cells) (Homo sapiens, UniProt P56856); assay: Flow cytometry binding of recombinant antibodies to CT26-CLDN18.2 cells; conditions: 4° C. 1 hour
# T1 construct: expressed in transfected cells; host or cells: CT26 cells (mouse), lentiviral transduction, puromycin selection
# Method: Binding activities of the recombinant monoclonal antibodies to CLDN18.2 were determined. Specifically, well-grown cell lines stably expressing CT26-CLDN18.2 were taken. The cells were washed with PBS, mixed with the fold-diluted antibody and incubated at 4° C. for 1 hour. The cells were washed once with flow cytometry buffer, PE-labeled anti-human IgG antibody was added, and incubated at 4° C. for 30 minutes. The supernatant was removed by centrifugation, and after the cells were washed with flow cytometry buffer, the fluorescence intensity on the surface of the cells was tested by flow cytometry. The relative binding activity of each antibody was calculated using the average fluorescence intensity.
# The binding activity of the defucosylated antibodies 18.2-A1F, 18.2-A3F and 18.2-A4F to CLDN18.2 as compared to the binding activity of 18.2-A1, 18.2-A3 and 18.2-A4 to CLDN18.2 was tested by flow cytometry, the method of which is as described in Example 5, and the experimental results are shown in FIG. 7.
# [3] = test system: human FcγRIIIa (V158) on FcγRIIIa-Jurkat cells; assay: Flow cytometry binding to FcγRIIIa-Jurkat cells
# Source text: We next further tested the binding activity of the CLDN18.2 antibodies and their defucosylated forms to FcγRIIIa expressed on the cell surface. Specifically, the human FcγRIIIa (V158, high FC binding subtype) gene was cloned into a mammalian cell expression vector carrying a puromycin screening marker and transfected into a Jurkat cell line. A cell line stably expressing FcγRIIIa (FcγRIIIa-Jurkat) was screened with puromycin. In addition, NK92MI is a human NK cell line that naturally expresses the FcγRIIIa receptor (F158, low FC binding subtype). The binding ability of the CLDN18.2 antibodies and their defucosylated forms to FcγRIIIa expressed on the surface of FcγRIIIa-jurkat cells and NK92MI cells was tested by flow cytometry. The specific flow cytometry assay is described with reference to Example 6.
# [4] = target: T2, CLDN18.2 (CLDN18.2-Flag 293t cells) (Homo sapiens, UniProt P56856); assay: Binding specificity, 293t cells expressing CLDN18.2-Flag, flow cytometry; conditions: 10 μg/ml antibody, 4° C. 1 hour
# T2 construct: expressed in transfected cells; host or cells: 293t cells, transient transfection
# Source text: (§1) Human Claudin18 proteins include two homologues, i.e., CLDN18.1 and CLDN18.2, which share exons other than exon 1, and the exon 1 sequences of CLDN18.1 and CLDN18.2 are highly similar with only 8 different amino acids in the first extracellular region. The exon 1 of CLDN18.1 and the exon 1 of CLDN18.2 are specifically expressed in different tissues driven by different promoters. Among them, CLDN18.1 is specifically expressed in lung epithelial cells, while CLDN18.2 is specifically expressed in gastric epithelial cells. To identify the specificity of the screened CLDN18.2 antibodies, binding of the antibodies to CLDN18.1 and CLDN18.2 was tested.
# (§2) Specifically, well-grown 293t cells were taken to transiently express flag-tagged CLDN18.1 (CLDN18.1-Flag) or CLDN18.2 (CLDN18.2-Flag). 48 hours after transfection, the cells were digested with trypsin. After washed with flow cytometry buffer, the cells were mixed with 10 μg/ml of isotype control antibody or one of the above five CLDN18.2 antibodies in 200 μl of flow cytometry buffer, and were incubated at 4° C. for 1 hour. Subsequently, the cells were washed once with flow cytometry buffer, PE-labeled anti-human IgG antibody was added, and incubated at 4° C. for 30 min. The supernatant was removed by centrifugation, wash was performed twice with flow cytometry buffer, and the cells were fixed in a fix solution containing 1% paraformaldehyde and 0.5% triton-X100 and the cell membrane was permeabilized. Subsequently, the cells were incubated with APC-labeled anti-flag antibody for 30 min and tested by flow cytometry.
# [5] = test system: SNU601 cells expressing CLDN18.2; assay: Endocytosis of antibody after binding to SNU601 cells stably expressing CLDN18.2; assay type: cell-based; conditions: 10 μg/ml, 4 h
# Method: It has been reported that the binding of some antibodies to cell surface antigens can cause endocytosis of antigen and antibody complexes, thereby reducing the expression level of the cell surface antigens and accelerating antibody metabolism in vivo (Schrama D et al., 2006, Nat Rev Drug Discov). In this example, the ability of antibodies 18.2-A1, 18.2-A3, 18.2-A4 and 18.2-A6 to be endocytosed by cells was tested in SNU601 cells stably expressing CLDN18.2. […] Subsequently, they were washed at 4° C. and stained with PE-labeled anti-human IgG antibody. After fixation with 4% formalin, antibody binding on the cell surface was tested by flow cytometry.
# control CT26 cell line = assay: Flow cytometry binding to control CT26 cell line; conditions: results not shown
# FcγRIIIa = assay: Biacore binding to FcγRIIIa; conditions: FcγRIIIa captured as ligand, antibody as analyte
# Method: Subsequently, the binding activity of the CLDN18.2 antibody and its defucosylated form to FcγRIIIa was tested using the Biacore method. Specifically, FcγRIIIa (Sino Biological Inc, 10389-H08C1) was diluted to 0.1 μg/ml in HBS-EP buffer as a ligand, and 18.2-A1F and 18.2-A1 antibody samples were diluted to 360 μg/ml, 120 μg/ml, 40 μg/ml, 13.3 μg/ml and 4.4 μg/ml respectively as analytes. The ligand FcγRIIIa was immobilized using an indirect capture method. First, 50 μg/ml of Anti-His IgG was covalently bound to the surface of CMS chip through amino coupling, followed by the binding of the ligand and analyte. Affinity analysis experiments were performed in Biacore Wizard mode using a multi-cycle approach with FcγRIIIa as the ligand and 18.2-A1F and 18.2-A1 antibody samples as analytes.
# The test for each sample includes three Start up, one zero concentration control, five gradient concentration samples and one replicate sample (reference). The chip was regenerated with 10 mM glycine-HCl, pH 1.5 regeneration solution after each cycle. Each concentration cycle of the analyte was set with a capture time of 60 s and a flow rate of the ligand solution of 10 μl/min; a binding time of ligand and analyte of 180 s, and a flow rate of the analyte solution of 30 μl/min; and a dissociation time of 180 s. The CMS chip coupled with Anti-His IgG was placed in the slot for detection and analysis. […]
# [6] = target: T3, CLDN18.1 (CLDN18.1-Flag 293t cells) (Homo sapiens, UniProt P56856); assay: Binding specificity, 293t cells expressing CLDN18.1-Flag, flow cytometry; conditions: 10 μg/ml antibody, 4° C. 1 hour
# T3 construct: expressed in transfected cells; host or cells: 293t cells, transient transfection
# Source text: as §1, §2
molecule,measurement,setting,value
B1,binding to untransfected Jurkat cells,[1],not able to bind
same,binding to CT26 cell line expressing CLDN18.2,[2],able to bind well
same,binding to FcγRIIIa-jurkat cells,[3],able to bind
same,binding to CLDN18.2-flag transfected positive 293t cells,[4],able to bind well
same,binding to SNU601 cells expressing CLDN18.2 under 4° C. incubation,[5]; 4° C.,bound well
same,antibody staining/binding on the cell surface under 37° C. incubation,[5]; 37° C.,still bound well
same,endocytosis by cells under 37° C. incubation,[5]; 37° C.,did not undergo significant endocytosis
same,binding to control CT26 cell line,control CT26 cell line,did not bind
same,binding to FcγRIIIa (Biacore),FcγRIIIa,able to bind to FcγRIIIa effectively
same,binding to CLDN18.1-positive cells,[6],none of the six antibodies bound
